Numbering of substitutions follows the chain as printed.
B1: ZDY20 Fab (Fab, V domains shown)
VH: EVQLVETGGGLIQPGGSLRLSCAASGITVSSNYMSWVRQAPGKGLEWVSVIYSGGSTYYADSVKGRFTISRDNSKNTLYLQMNSLRAEDTAVYYCAREGLGDGYNAIAGLGFDLWGRGTLVTVSS
VL: DIVMTQSPSSLSASVGDSVTITCQASQDINNYLNWYQQKPGRAPELLINDASNLEAGVPSRFSGSGSGTDFTLTISSLQTEDFATYYCQQYGSLPYTFGQGTKLDIR
B2: ZDY28 Fab (Fab, V domains shown)
VH: EVQLVQSGGGVVQPGRSLRLSCAASGFTFSSYGMHWVRQAPGKGLEWVAVISYDGSNKYYADSVKGRFTISRDNSKNTLYLQMNSLRAEDTAVYYCASRSTVVPAAIFAFDIWGQGTMVTVSS
VL: not shown
B3: ZDY95 Fab (Fab, V domains shown)
VH: B2 VH
VL: not shown
B4: ZDY49 Fab (Fab, V domains shown)
VH: B2 VH with Q6E
VL: not shown

target: recombinant SARS-CoV-2 spike protein receptor binding domain (RBD) (SARS-CoV-2, UniProt P0DTC2, biotin (the listed product is biotinylated)); assay: SPR

With B1 as the binder, how does the Kd read?
Its Kd is 74.9 nM.

Which Kd does the source give for B2 here?
Its Kd is 19.2 nM.

B3 was tested. Which Kd did it give?
The Kd was 26.2 nM.

For B4, which Kd is on record?
The Kd was 42.3 nM.
